Data taken from patent US20220411487A1 (Regeneron, published 2022).

Tests used:
[1] = target: T1, full length cynomolgous monkey TMPRSS6 on HEK293 cells (HEK293/mfTMPRSS6) (cynomolgous monkey/Macaca fascicularis, UniProt Q8IU80 10-811 (human entry)); assay: cell-based or functional assay
T1 chain: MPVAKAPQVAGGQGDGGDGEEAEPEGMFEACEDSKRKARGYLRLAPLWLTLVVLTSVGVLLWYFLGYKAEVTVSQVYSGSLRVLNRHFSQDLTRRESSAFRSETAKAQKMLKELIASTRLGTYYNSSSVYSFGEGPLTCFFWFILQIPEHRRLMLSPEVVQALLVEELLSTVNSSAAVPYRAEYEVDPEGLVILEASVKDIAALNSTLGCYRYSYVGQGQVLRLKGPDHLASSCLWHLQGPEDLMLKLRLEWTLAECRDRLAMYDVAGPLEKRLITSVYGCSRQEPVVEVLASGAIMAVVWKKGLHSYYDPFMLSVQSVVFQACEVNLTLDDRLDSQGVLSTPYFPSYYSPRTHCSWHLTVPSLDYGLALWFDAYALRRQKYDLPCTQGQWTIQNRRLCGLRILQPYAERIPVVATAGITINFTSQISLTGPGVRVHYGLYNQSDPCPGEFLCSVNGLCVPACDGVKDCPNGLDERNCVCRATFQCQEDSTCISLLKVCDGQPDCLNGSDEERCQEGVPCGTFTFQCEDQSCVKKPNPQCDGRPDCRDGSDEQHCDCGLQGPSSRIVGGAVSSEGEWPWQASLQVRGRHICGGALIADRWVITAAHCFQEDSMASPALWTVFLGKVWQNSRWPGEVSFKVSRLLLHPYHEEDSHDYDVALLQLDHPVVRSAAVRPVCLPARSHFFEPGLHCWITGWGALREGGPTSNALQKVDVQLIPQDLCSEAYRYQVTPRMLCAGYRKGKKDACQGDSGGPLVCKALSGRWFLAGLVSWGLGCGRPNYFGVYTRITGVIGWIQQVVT

hTMPRSS6_S762A-MMH = target: T2, hTMPRSS6_S762A-MMH (human, UniProt Q8IU80 77-811); assay: SPR, mAb captured via anti-hFc, 25 C
T2 construct: also called REGN5330; human TMPRSS6_S762A-MMH
Protocol: (§1) The equilibrium dissociation constant (KD) for TMPRSS6 binding to different TMPRSS6 monoclonal antibodies (mAbs) was determined using a real-time surface plasmon resonance biosensor using a Biacore 4000 instrument. All binding studies were performed in 10 mM HEPES, 150 mM NaCl, 3 mM EDTA, and 0.05% v/v Surfactant Tween-20, pH 7.4 (HBS-ET) running buffer at 25° C. and 37° C. The Biacore CM5 sensor chip surface was first derivatized by amine coupling with a human Fc specific mouse mAb to capture different TMPRSS6 mAbs. […] Different concentrations (100 nM to 3.7 nM, 3-fold serial dilution) of the TMPRSS6 reagent proteins prepared in HBS-EP running buffer were injected over the TMPRSS6 mAb captured surface for 150 seconds at a flow rate of 30 μL/min and their dissociation in HBS-ET running buffer was monitored for 10 minutes. At the end of each cycle, the TMPRSS6 mAb captured surface was regenerated using a 12 second injection of 20 mM phosphoric acid.
(§2) The association rate (kₐ) and dissociation rate (kd) were determined by fitting the real-time binding sensorgrams to a 1:1 binding model with mass transport limitation using Scrubber 2.0 (BioLogic Software) curve-fitting software. Binding dissociation equilibrium constant (KD) and dissociative half-life (t½) were calculated from the kinetic rates as: […]

mfTMPRSS6_S751A-MMH = target: T3, mfTMPRSS6_S751A-MMH (Macaca fascicularis, UniProt Q8IU80 77-811 (human entry)); assay: SPR, mAb captured via anti-hFc, 25 C
T3 construct: also called REGN5977; Macaca fascicularis TMPRSS6 extracellular domain with a S751A mutation and a C-terminal myc-myc-hexahistidine tag
T3 chain: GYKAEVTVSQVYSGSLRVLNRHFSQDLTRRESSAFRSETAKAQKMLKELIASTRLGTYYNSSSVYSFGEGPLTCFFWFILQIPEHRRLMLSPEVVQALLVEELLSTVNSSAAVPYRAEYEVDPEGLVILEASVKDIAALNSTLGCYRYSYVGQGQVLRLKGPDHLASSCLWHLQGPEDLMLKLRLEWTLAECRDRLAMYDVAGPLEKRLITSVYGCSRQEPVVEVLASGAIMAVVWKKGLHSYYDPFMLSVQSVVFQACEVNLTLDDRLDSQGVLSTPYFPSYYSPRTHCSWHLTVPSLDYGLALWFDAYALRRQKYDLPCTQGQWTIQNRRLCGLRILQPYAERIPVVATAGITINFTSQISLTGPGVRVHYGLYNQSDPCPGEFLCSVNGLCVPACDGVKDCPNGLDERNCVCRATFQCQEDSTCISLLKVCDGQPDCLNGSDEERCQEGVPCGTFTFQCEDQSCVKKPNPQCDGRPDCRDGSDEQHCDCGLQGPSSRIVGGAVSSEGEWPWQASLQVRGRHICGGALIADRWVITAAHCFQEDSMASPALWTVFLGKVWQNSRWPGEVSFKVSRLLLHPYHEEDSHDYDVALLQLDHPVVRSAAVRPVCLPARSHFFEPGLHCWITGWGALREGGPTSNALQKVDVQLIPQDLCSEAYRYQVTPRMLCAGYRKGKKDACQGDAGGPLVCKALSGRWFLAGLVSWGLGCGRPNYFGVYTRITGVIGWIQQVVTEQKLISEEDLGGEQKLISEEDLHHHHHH
Protocol: as §1, §2

B1: REGN7969 (antibody, human IgG4 S228P, kappa, V domains shown)
VH: QVQLVESGGGVVQPGRSLRLSCAASGFTFNNYGMHWVRQAPGKGLEWVAIISYDGSNEYYSDSVKGRFTISRDNSKNTLYLQMNSLRAEDTAVYYCARDQDYGGNLFHYWGQGTLVTVSS
VL: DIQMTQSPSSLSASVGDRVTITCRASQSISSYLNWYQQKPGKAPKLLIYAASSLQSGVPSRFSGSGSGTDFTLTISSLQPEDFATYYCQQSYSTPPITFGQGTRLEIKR
notes: fully human; human IgG4 Fc with hinge S108P; also called mAb37746
% inhibition, HEK293 bioassay, overnight pre-incubation 37 C [1]: 89%
IC50, HEK293 bioassay, overnight pre-incubation 37 C [1]: 13 nM
100 nM Ag Bound (hTMPRSS6_S762A-MMH): 89 RU
Kd (hTMPRSS6_S762A-MMH): 0.45 nM
koff (hTMPRSS6_S762A-MMH): 0.000182 s⁻¹
kon (hTMPRSS6_S762A-MMH): 404000 M⁻¹ s⁻¹
t½ (hTMPRSS6_S762A-MMH): 1.07 h
100 nM Ag Bound (mfTMPRSS6_S751A-MMH): 92 RU
Kd (mfTMPRSS6_S751A-MMH): 0.435 nM
koff (mfTMPRSS6_S751A-MMH): 0.000182 s⁻¹
kon (mfTMPRSS6_S751A-MMH): 419000 M⁻¹ s⁻¹
t½ (mfTMPRSS6_S751A-MMH): 1.05 h

B2: REGN7971 (antibody, human IgG4 S228P, kappa, V domains shown)
VH: QVQLVESGGGVVQPGRSLRLSCAASGFTFSTYGMHWVRQAPGKGLEWVAIISYDGSNDYYLDSVKGRFTISRDNSKNTLYLQMNNLRAEDTAVYYCAKDQGYGGNLFASWGQGTLVTVSS
VL: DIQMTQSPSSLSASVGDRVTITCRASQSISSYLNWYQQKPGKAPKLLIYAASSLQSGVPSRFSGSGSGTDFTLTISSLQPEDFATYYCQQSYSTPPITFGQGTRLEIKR
notes: fully human; human IgG4 Fc with hinge S108P; also called mAb37763
% inhibition, HEK293 bioassay, overnight pre-incubation 37 C [1]: 89%
IC50, HEK293 bioassay, overnight pre-incubation 37 C [1]: 6 nM
100 nM Ag Bound (hTMPRSS6_S762A-MMH): 103 RU
Kd (hTMPRSS6_S762A-MMH): 0.322 nM
koff (hTMPRSS6_S762A-MMH): 0.000147 s⁻¹
kon (hTMPRSS6_S762A-MMH): 455000 M⁻¹ s⁻¹
t½ (hTMPRSS6_S762A-MMH): 1.32 h
100 nM Ag Bound (mfTMPRSS6_S751A-MMH): 109 RU
Kd (mfTMPRSS6_S751A-MMH): 0.283 nM
koff (mfTMPRSS6_S751A-MMH): 0.000138 s⁻¹
kon (mfTMPRSS6_S751A-MMH): 487000 M⁻¹ s⁻¹
t½ (mfTMPRSS6_S751A-MMH): 1.4 h

B3: REGN7974 (antibody, human IgG4 S228P, kappa, V domains shown)
VH: EVQLVESGGGLVQPGRSLRLSCIASGFNFGDYGMSWVRQAPGKGLEWVGFIRSKAYGGTTEYAASVKGRFTISRDDSKSIAYLQMNSLKTEDAAMYYCSRDYYDILTGYYGDYWGQGTLVTVSS
VL: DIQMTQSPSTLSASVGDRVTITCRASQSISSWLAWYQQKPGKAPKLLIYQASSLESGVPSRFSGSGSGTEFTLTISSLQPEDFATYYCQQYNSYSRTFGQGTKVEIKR
notes: fully human; human IgG4 Fc with hinge S108P; also called mAb41422
% inhibition, HEK293 bioassay, overnight pre-incubation 37 C [1]: 31%
IC50, HEK293 bioassay, overnight pre-incubation 37 C [1]: > 10 nM
100 nM Ag Bound (hTMPRSS6_S762A-MMH): 191 RU
Kd (hTMPRSS6_S762A-MMH): 2.63 nM
koff (hTMPRSS6_S762A-MMH): 0.00068 s⁻¹
kon (hTMPRSS6_S762A-MMH): 259000 M⁻¹ s⁻¹
t½ (hTMPRSS6_S762A-MMH): 0.283 h
100 nM Ag Bound (mfTMPRSS6_S751A-MMH): 188 RU
Kd (mfTMPRSS6_S751A-MMH): 7.18 nM
koff (mfTMPRSS6_S751A-MMH): 0.00192 s⁻¹
kon (mfTMPRSS6_S751A-MMH): 268000 M⁻¹ s⁻¹
t½ (mfTMPRSS6_S751A-MMH): 0.1 h

B4: REGN7977 (antibody, V domains shown)
VH: EVQLVESGGGLVKPGGSLRVSCAASGVTFSNVWMSWVRQVPGKGLEWVGRIKSKTDGGTTDYAAPVKGRFTISKDDSKNTLFLQMNSLKTEDTAVYYCTTETGDFWSGYYPRFQHWGQGTLVTVSS
VL: DIQMTQSPSSLSASVGDRVTITCRASQYISTYLNWYQQKPGKAPSLLIYAASSLQSGVPSRFSGSGSGTDFTLTISSLQPEDFASYSCQQSYSTPPYTFGQGTKLEIKR
notes: fully human; human IgG4 Fc with hinge S108P; also called mAb41465
% inhibition, HEK293 bioassay, overnight pre-incubation 37 C [1]: 81%
IC50, HEK293 bioassay, overnight pre-incubation 37 C [1]: > 10 nM
100 nM Ag Bound (hTMPRSS6_S762A-MMH): 159 RU
Kd (hTMPRSS6_S762A-MMH): 1.69 nM
koff (hTMPRSS6_S762A-MMH): 0.000368 s⁻¹
kon (hTMPRSS6_S762A-MMH): 218000 M⁻¹ s⁻¹
t½ (hTMPRSS6_S762A-MMH): 0.517 h
100 nM Ag Bound (mfTMPRSS6_S751A-MMH): 155 RU
Kd (mfTMPRSS6_S751A-MMH): 3.09 nM
koff (mfTMPRSS6_S751A-MMH): 0.000697 s⁻¹
kon (mfTMPRSS6_S751A-MMH): 225000 M⁻¹ s⁻¹
t½ (mfTMPRSS6_S751A-MMH): 0.283 h

B5: REGN7999 (antibody, human IgG4 S228P, kappa, V domains shown)
VH: EVQLVESGGGLVQPGGSLRLSCAASGFTFSSYAMTWVRQAPGKGLEWVSAISGSDTSTYYADSVKGRFTISRDNSKNTLFLQMNSLRAEDTAVYYCAKHQDYDFSYYYSAMDVWGQGTTVTVSS
VL: DIQMTQSPSSLSASVGDRVIITCRASQDFNSWLAWYQQKPGKAPKLLIYAASSLQSGVPSRFSGSGSGTDFTLTISSLQPEDFATYYCQQTDSFPFTFGPGTKVDIKR
notes: fully human; human IgG4 Fc with hinge S108P; also called mAb41450
% inhibition, HEK293 bioassay, overnight pre-incubation 37 C [1]: 91%
IC50, HEK293 bioassay, overnight pre-incubation 37 C [1]: 21 nM
100 nM Ag Bound (hTMPRSS6_S762A-MMH): 176 RU
Kd (hTMPRSS6_S762A-MMH): 0.243 nM
koff (hTMPRSS6_S762A-MMH): 6.49e-05 s⁻¹
kon (hTMPRSS6_S762A-MMH): 267000 M⁻¹ s⁻¹
t½ (hTMPRSS6_S762A-MMH): 2.97 h
100 nM Ag Bound (mfTMPRSS6_S751A-MMH): 185 RU
Kd (mfTMPRSS6_S751A-MMH): 0.11 nM
koff (mfTMPRSS6_S751A-MMH): 7.23e-05 s⁻¹
kon (mfTMPRSS6_S751A-MMH): 660000 M⁻¹ s⁻¹
t½ (mfTMPRSS6_S751A-MMH): 2.67 h

B6: REGN8023 (antibody, human IgG4 S228P, kappa, V domains shown)
VH: EVQLVESGGGLVKPGGSLRISCAASGFIFVDYAMHWVRQAPGKGLEWVSGISWNSGSIGYADSVKGRFTISRDNAKKSLYLQMSGLRPEDTALYYCVKSGFYYVRSYFDNWGQGTLVTVSS
VL: DIVMTQSPLSLPVTPGEPASISCRSSQSLLDSDDGNTYLDWYLRKPGQSPQLLIYTLSYRASGVPDRFSGSGSGTDFTLKISRVEADDVGVYYCMQRIEFPLTFGGGTKVEIKR
notes: fully human; human IgG4 Fc with hinge S108P; also called mAb37699
% inhibition, HEK293 bioassay, overnight pre-incubation 37 C [1]: 91%
IC50, HEK293 bioassay, overnight pre-incubation 37 C [1]: 2.8 nM
100 nM Ag Bound (hTMPRSS6_S762A-MMH): 205 RU
Kd (hTMPRSS6_S762A-MMH): 0.128 nM
koff (hTMPRSS6_S762A-MMH): 8.6e-05 s⁻¹
kon (hTMPRSS6_S762A-MMH): 671000 M⁻¹ s⁻¹
t½ (hTMPRSS6_S762A-MMH): 2.23 h
100 nM Ag Bound (mfTMPRSS6_S751A-MMH): 203 RU
Kd (mfTMPRSS6_S751A-MMH): 0.065 nM
koff (mfTMPRSS6_S751A-MMH): 5.79e-05 s⁻¹
kon (mfTMPRSS6_S751A-MMH): 891000 M⁻¹ s⁻¹
t½ (mfTMPRSS6_S751A-MMH): 3.32 h
